{"source": "patent US20100209400A1", "about": "“TAK1-Mediated Regulation of Osteogenesis” (priority 2003, published 2010)", "molecules": {"B1": {"name": "TAKDN: TAK1 Δ1-300 N-terminal deletion mutant (protein)", "chain": "PCQYSDEGQSNSATSTGSFMDIASTNTSNKSDTNMEQVPATNDTIKRLESKLLKNQAKQQSESGRLSLGASRGSSVESLPPTSEGKRMSADMSEIEARIVATAAYSKPKRGHRKTASFGNILDVPEIVISGNGQPRRRSIQDLTVTGTEPGQVSSRSSSPSVRMITTSGPTSEKPARSHPWTPDDSTDTNGSDNSIPMAYLTLDHQLQPLAPCPNSKESMAVFEQHCKMAQEYMKVQTEIALLLQRKQELVAELDQDEKDQQNTSRLVQEHKKLLDENKSLSTYYQQCKKQLEVIRSQQQKRQGTS", "modifications": "left off: small tags and cut ends", "notes": "TAK1 Δ1-300 N-terminal deletion mutant"}, "B2": {"name": "TAK1wt: wild-type murine TAK1 (long splice form) cloned from kidney, expressed from plasmid in transfected cells (protein)", "chain": "MSTASAASSSSSSSASEMIEAPSQVLNFEEIDYKEIEVEEVVGRGAFGVVCKAKWRAKDVAIKQIESESERKAFIVELRQLSRVNHPNIVKLYGACLNPVCLVMEYAEGGSLYNVLHGAEPLPYYTAAHAMSWCLQCSQGVAYLHSMQPKALIHRDLKPPNLLLVAGGTVLKICDFGTACDIQTHMTNNKGSAAWMAPEVFEGSNYSEKCDVFSWGIILWEVITRRKPFDEIGGPAFRIMWAVHNGTRPPLIKNLPKPIESLMTRCWSKDPSQRPSMEEIVKIMTHLMRYFPGADEPLQYPCQYSDEGQSNSATSTGSFMDIASTNTSNKSDTNMEQVPATNDTIKRLESKLLKNQAKQQSESGRLSLGASRGSSVESLPPTSEGKRMSADMSEIEARIVATAAYSKPKRGHRKTASFGNILDVPEIVISGNGQPRRRSIQDLTVTGTEPGQVSSRSSSPSVRMITTSGPTSEKPARSHPWTPDDSTDTNGSDNSIPMAYLTLDHQLQPLAPCPNSKESMAVFEQHCKMAQEYMKVQTEIALLLQRKQELVAELDQDEKDQQNTSRLVQEHKKLLDENKSLSTYYQQCKKQLEVIRSQQQKRQGTS", "modifications": "left off: small tags and cut ends", "notes": "wild-type murine TAK1 (long splice form) cloned from kidney, expressed from plasmid in transfected cells"}}, "key": {"[1]": {"system": "C3H10T½-BMP2 cells", "experiment": "FACS for apoptosis and cell cycle progression", "format": "cell-based, murine", "conditions": "CDDP 25 μM, TAK1 variants stably co-expressed; for apoptosis (subG0-G1 peak): etoposide 10 μM", "description": "Exponentially growing cells were harvested 48 hours post-seeding or at different stages at and after confluence by trypsinization and fixation with 80% methanol. Cellular DNA content was determined by staining cells with RNAseS/propidium iodide, and measuring fluorescence in a Becton Dickinson FACScan. For each cell population, 10,000 cells were analyzed, and the proportions in G0/G1, G2/M and S-phases were estimated by using Modfit cell cycle analysis software. Information on cell size (e.g. due to differentiation) and complexity could be obtained from forward and side scatter data following evaluation of relevant cell populations.\nTo determine whether TAK1-mediated effects in the assay systems above resulted from apoptosis, C3H10T½-BMP2 cells co-expressing TAK1 variants were assayed by FACS for apoptosis and cell cycle progression."}, "[2]": {"system": "SMAD proteins", "experiment": "Co-immunoprecipitation of TAK1 variants with SMADs from HEK293T cells", "format": "binding", "conditions": "SMAD7, R-SMADs 1-3, 5, SMAD4", "description": "(§1) Co-immunoprecipitation were conducted as described (Verschueren K et al, J. Biol. Chem, 274: 20489-20498, 1999). Human embryonic kidney (HEK) 293T cells were plated at 3×10^6 cells/petri dish (55 square centimeters (cm^2)) one day prior to transfection. For transient transfections, 1 μg of Flag-tagged expression plasmid and 2 μg of Myc- or HA-tagged expression plasmids were utilized. DNA content was normalized with empty vector. Transfections were performed with FuGENE6 (Roche, Mannheim). Roughly 36 hours post-transfection cells were dislodged from dishes and harvested by centrifugation. Pellets were shock frozen in liquid nitrogen. […] reactions were performed in lysis buffer. Cell extracts and immunoprecipitates were analyzed by SDS-PAGE and Western blot analysis using the appropriate antibodies.\nToward this end, co-immunoprecipitation with various combinations of wild-type TAK1 (TAK1wt) and R-SMADs, either in a latent form or post-activation by constitutively active BMP type I receptor (ALK6ca, BMPR-IB) or activin type I receptor ALK4ca (ActR-IB), I-SMADs and SMAD4, were conducted. […] TAK1 interaction with R-SMADs was typically stronger in the absence of constitutively active receptors (the exception being SMAD3), which may reflect a reduced affinity for activated, i.e. phosphorylated R-SMADs by TAK1, except with SMAD3.\nSMAD proteins only bind TAK1 with an intact or a constitutively active kinase domain. Different TAK1 variants such as TAK1wt, TAK1ca, TAK1dn and two deletions, TAKDN (lacking amino acids 1-300; FIG. 1a) and TAKDC (lacking 301-606; FIG. 1a), respectively, were tested for their ability to bind to R-SMADs (using SMAD1 as a representative) or I-SMAD6 and I-SMAD7."}, "[3]": {"system": "C3H10T½-BMP2 cells", "experiment": "Semi-quantitative RT-PCR of osteo-/chondrogenic marker genes and Alcian Blue staining", "format": "cell-based, murine", "conditions": "co-expression in C3H10T½-BMP2 cells", "description": "(§2) Proteoglycan-secreting chondrocytes were identified by staining with Alcian Blue at pH 2.5 (Alcian Blue 8GS, Roth, Karlsruhe).\nTotal cellular RNA was prepared by TriReagent LS according to the manufacturer's protocol (Molecular Research Center Inc., Ohio, Miss.). Five μg of total RNA was reverse transcribed with oligo-dT primers and cDNA aliquots were subjected to PCR. RT-PCR was normalized by the transcriptional levels of HPRT. The primer pairs and PCR conditions used to evaluate osteo-/chondrogenic differentiation, for collagen Ia1, collagen IIa1, osteocalcin, and the PTH/PTHrP-receptor have been described (Hoffmann A et al, J. Cell Sci 115: 769-781, 2002)."}, "[4]": {"system": "C3H10T½-BMP2 cells", "experiment": "Histological analysis and alkaline phosphatase staining of C3H10T½-BMP2 cells", "format": "cell-based, murine", "description": "Murine C3H10T½ progenitor cells were cultured in high-glucose DMEM containing 10% fetal calf serum, as described (Ahrens Met al, DNA Cell Biol, 12: 871-880, 1993). Cells were stably transfected with expression plasmids encoding wt TAK1, dominant-negative (dn) or constitutively active (ca) TAK1 in pMT7T3-f1 using DOSPER™ according to the manufacturer's protocol (Roche, Mannheim) and a selection plasmid conferring puromycin resistance (pBSpacDp: parental C3H10T½ cells) or G418-resistance (pAG60: BMP2-expressing C3H10T½ cells). Individual clones were picked, propagated, and tested for recombinant expression of TAK1-variants by RT-PCR using a vector-specific and a gene-specific primer. Control cell lines (empty to expression vector) were established at the same time. Cells were plated at a density of 5,000 cells/cm^2. After reaching confluence (arbitrarily termed day 0) ascorbic acid (50 microgram/milliliter (μg/ml)) and b-glycerophosphate (10 millimolar (mM)) were added.\nas §2\nOsteoblast formation was evaluated as a measure of TAK1 influence on osteo-/chondrogenic differentiation potential. C3H10T½-BMP2 cells co-expressing TAK1 and its molecular variants were assessed histologically for alkaline phosphatase (ALP) activity (FIG. 8C), which is indicative of osteoblast differentiation."}, "[5]": {"system": "SMAD1-mediated transcription", "experiment": "SMAD1-SBE CAT reporter assay", "format": "cell-based, human", "conditions": "dose-dependent, following activation by constitutively active receptors", "description": "Reporter assays using the GALA DNA binding domain fused to various forms of SMAD proteins were performed as described (Meersseman, G at al, Mech. Dev, 61: 127-140, 1997). Briefly, 420 nanograms (ng) DNA was transfected/well (24 well-plate seeded with 1×10^5 HEK 293T cells) one day prior to transfection. The DNA mix included a plasmid expressing β-galactosidase under the control of the RSV promoter, for normalization purposes and a reporter plasmid encoding firefly luciferase under the control of 5 GAL4 binding sites upstream of a minimal TATA box (pG5 luc, Promega, Mannheim) and combinations of effector plasmids. The DNA content was normalized with empty vector.\nCells were harvested and lysed. β-Galactosidase (β-gal) activity was measured via the luminescent β-galactosidase kit II (Clontech, Palo Alto, Calif.), and luciferase activity via the luciferase assay system (Promega, Mannheim). All results are expressed as luciferase activity normalized with β-gal values (“relative luciferase activities”). Reporter assays with the SMAD1 DNA binding element SBE-9 (GCCG×9) (Kusanagi K et al, Mol Biol Cell 11: 555-565, 2000) cloned into pCAT5 vector (Boshart M et al, Gene 110: 129-130, 1992) were performed similarly except that cells were lysed in CAT lysis buffer. CAT enzyme was measured via CAT ELISA assay and β-gal via chemiluminescent β-gal reporter gene assay (Roche, Mannheim). […]"}, "[6]": {"system": "p38 MAPK and JNK phosphorylation", "experiment": "p38 MAPK and JNK phosphorylation in transfected cells", "format": "cell-based", "conditions": "data not shown", "excerpt": "Among nine tissues examined, both TAK1 long and short forms were expressed in every tissue assessed apart from kidney (FIG. 1B). TAK1 tissue-specific expression levels varied, with minimal lung expression detected. Both TAK1 splice variants were comparably expressed in the mesenchymal progenitor line, C3H10T½ (see FIG. 8A). TAK1 mutants generated from the long transcript form included dominant-negative (TAK1dn) and constitutively active (TAK1ca) variants as compared to wild-type control (TAK1wt)."}, "[7]": {"target": "T1, SMAD1:SMAD4 interaction (Homo sapiens, UniProt Q13485+Q15797)", "T1 construct": "expressed in transfected cells; host or cells: HEK293T", "T1 sequence (Q15797 whole entry)": "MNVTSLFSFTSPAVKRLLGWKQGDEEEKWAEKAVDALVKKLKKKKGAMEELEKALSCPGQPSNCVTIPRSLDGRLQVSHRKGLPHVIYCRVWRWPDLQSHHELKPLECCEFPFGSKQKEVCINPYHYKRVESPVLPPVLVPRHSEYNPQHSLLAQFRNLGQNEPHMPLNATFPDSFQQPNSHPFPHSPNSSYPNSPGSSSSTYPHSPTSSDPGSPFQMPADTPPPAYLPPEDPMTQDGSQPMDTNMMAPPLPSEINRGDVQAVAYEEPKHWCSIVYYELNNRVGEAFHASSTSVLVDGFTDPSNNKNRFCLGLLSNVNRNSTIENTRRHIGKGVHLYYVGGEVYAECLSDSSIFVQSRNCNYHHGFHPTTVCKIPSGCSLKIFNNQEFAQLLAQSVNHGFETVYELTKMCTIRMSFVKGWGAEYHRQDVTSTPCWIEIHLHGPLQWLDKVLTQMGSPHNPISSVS", "T1 sequence (Q13485 whole entry)": "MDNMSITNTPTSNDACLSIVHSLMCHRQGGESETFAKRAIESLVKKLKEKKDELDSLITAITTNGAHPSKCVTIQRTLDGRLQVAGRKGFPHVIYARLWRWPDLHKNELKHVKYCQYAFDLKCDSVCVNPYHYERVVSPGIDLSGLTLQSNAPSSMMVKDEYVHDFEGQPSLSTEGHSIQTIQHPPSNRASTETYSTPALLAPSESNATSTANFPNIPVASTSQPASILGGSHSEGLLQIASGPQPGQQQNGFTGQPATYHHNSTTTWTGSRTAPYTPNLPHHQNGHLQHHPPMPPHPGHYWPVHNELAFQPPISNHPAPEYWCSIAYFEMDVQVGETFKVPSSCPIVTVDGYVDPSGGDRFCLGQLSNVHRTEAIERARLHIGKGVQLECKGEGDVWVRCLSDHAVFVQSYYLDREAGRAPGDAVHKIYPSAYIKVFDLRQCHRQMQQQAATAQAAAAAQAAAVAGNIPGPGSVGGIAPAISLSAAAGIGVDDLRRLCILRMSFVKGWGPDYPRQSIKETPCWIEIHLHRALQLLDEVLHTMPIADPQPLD", "experiment": "Co-immunoprecipitation of SMAD1:SMAD4 hetero-oligomerization in HEK293T cells", "format": "cell-based", "conditions": "receptor-mediated hetero-oligomerization", "description": "as §1\nR-SMAD hetero-oligomerization with SMAD4 and subsequent accumulation in the nucleus is essential for biological activity."}}}
{"molecule": "[NH2][Pt]([NH2])([Cl])[Cl]", "note": "[CDDP, cisplatin]", "values": [{"measurement": "cell cycle effect", "setting": "[1]", "value": "arrested maturation in the G2-M phase"}, {"measurement": "apoptosis (subG0-G1 peak)", "setting": "[1]", "value": "did not cause measurable apoptosis"}]}
{"molecule": "COc1cc([C@@H]2c3cc4c(cc3[C@@H](O[C@@H]3O[C@@H]5CO[C@@H](C)O[C@H]5[C@H](O)[C@H]3O)[C@H]3COC(=O)[C@H]23)OCO4)cc(OC)c1O", "note": "[etoposide]", "values": [{"measurement": "apoptosis (subG0-G1 peak)", "setting": "[1]", "value": "induced a significant subG0-G1 peak"}]}
{"molecule": "B1", "values": [{"measurement": "binding of TAK1 variant to SMAD proteins (co-immunoprecipitation)", "setting": "[2]", "value": "unable to bind significantly"}]}
{"molecule": "B2", "values": [{"measurement": "apoptosis (subG0-G1 peak)", "setting": "[1]", "value": "did not induce apoptosis"}, {"measurement": "expression of osteogenic marker genes (osteocalcin, PTH/PTHrP receptor)", "setting": "[3]", "value": "down-regulated expression of osteogenic genes"}, {"measurement": "growth phenotype of C3H10T½-BMP2 cells expressing the TAK1 variant", "setting": "[4]; after confluence", "value": "C3H10T½ wild-type phenotype"}, {"measurement": "osteoblast-like cell formation / ALP activity", "setting": "[4]; compared to C3H10T½-BMP2 cells, 10 days post-confluence", "value": "interfered with osteoblast-like cell formation"}, {"measurement": "maximum reduction of SMAD1 transcription (CAT reporter)", "setting": "[5]", "value": 30, "unit": "%"}, {"measurement": "biological activity as evidenced by p38 MAPK and JNK phosphorylation", "setting": "[6]", "value": "biologically active"}, {"measurement": "SMAD1:SMAD4 interaction", "setting": "[7]", "value": "enhanced"}, {"measurement": "binding of TAK1 variant to SMAD proteins (co-immunoprecipitation)", "setting": "[2]", "value": "able to interact"}]}
